Data on 5 molecules can be found in article PMC7663122, “Protein-Assisted Room-Temperature Assembly of Rigid, Immobile Holliday Junctions and Hierarchical DNA Nanostructures”.

In series [1] the target is T1, Redβ (single-strand annealing protein) (UniProt P03698 1-261).
T1 sequence: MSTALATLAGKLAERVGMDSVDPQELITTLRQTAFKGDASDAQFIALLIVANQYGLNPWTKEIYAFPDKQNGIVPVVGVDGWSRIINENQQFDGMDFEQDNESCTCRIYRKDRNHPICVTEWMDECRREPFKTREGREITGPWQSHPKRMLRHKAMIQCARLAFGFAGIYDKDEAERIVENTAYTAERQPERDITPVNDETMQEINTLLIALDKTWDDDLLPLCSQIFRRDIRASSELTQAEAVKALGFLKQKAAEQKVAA
In words: SEC, gel and AFM; excess Redβ (ssDNA/Redβ 1:25 stated), 25 °C, 1 mM MgCl2; B1 buffer: 50 mM Tris-HCl pH 8.0, 150 mM NaCl, 1 mM MgCl2, 25 °C (sticky-end assemblies); 44mer coating and annealing at 37 °C; SEC in 100 mM Tris-HCl pH 8.0, 150 mM NaCl, 1 mM MgCl2. The following applies: protein: recombinant, tags: Strep-tag II, four-way junction.

In series [2] the target is T1, Redβ (single-strand annealing protein). In words: EMSA (agarose) and AFM; strands coated first, then mixed; ssDNA/Redβ 1:1 and 1:2; completely coated at 1:1, slightly increased affinity vs 44mer; B1 buffer: 50 mM Tris-HCl pH 8.0, 150 mM NaCl, 1 mM MgCl2, 25 °C (sticky-end assemblies); 44mer coating and annealing at 37 °C; SEC in 100 mM Tris-HCl pH 8.0, 150 mM NaCl, 1 mM MgCl2. The conditions noted are these: protein: recombinant; tags: Strep-tag II; blunt-ended immobile four-way junction, 33 bp arms.

Series [3] shares this target. In words: EMSA (agarose) and AFM; strands coated first at 37 °C, then mixed; ssDNA/Redβ 1:1 to 1:4; weak interaction, residual free ssDNA at 1:1; B1 buffer: 50 mM Tris-HCl pH 8.0, 150 mM NaCl, 1 mM MgCl2, 25 °C (sticky-end assemblies); 44mer coating and annealing at 37 °C; SEC in 100 mM Tris-HCl pH 8.0, 150 mM NaCl, 1 mM MgCl2. The conditions noted are these: protein: recombinant; tags: Strep-tag II; blunt-ended immobile four-way junction, 22 bp arms.

Series [4] has the same target. The series can be described thus: EMSA (agarose), SEC and AFM; strands coated first, then mixed; ssDNA/Redβ 1:1 (incomplete) and 1:2 (saturated); B1 buffer: 50 mM Tris-HCl pH 8.0, 150 mM NaCl, 1 mM MgCl2, 25 °C (sticky-end assemblies); 44mer coating and annealing at 37 °C; SEC in 100 mM Tris-HCl pH 8.0, 150 mM NaCl, 1 mM MgCl2. The conditions noted are these: protein: recombinant; tags: Strep-tag II; blunt-ended immobile four-way junction, 44 bp arms.

B1: S1S4 sticky-end Holliday junction (structured_DNA)
DNA 1: GATTCCTTCCGGGCGAATTTACCCCAGTGAACGCTGGTCCCCGCGGTCATGCTGAAGGCGATAGTA
DNA 2: GCGGGGACCAGCGTTCACTGGGTTATTGGGTATGACGAGCTTAGATTTGGTATATGGTCTCGACTA
DNA 3: TAGTCGAGACCATATACCAAATCTAAGCTCGTCATACCCAATAAGATGTACGTTGGCGGACAGTTACATATTGTGCGCTGCCGGTGGC
DNA 4: GCCACCGGCAGCGCACAATATGTAACTGTCCGCCAACGTACATCGTAAATTCGCCCGGAAGGAATCCCGTAACGAGGCCACATTTTTG
Turning to B1, the binding result in series [1] (two 3' overhangs 22 nt (strands 1 and 4)) is given as “binds”.

B2: 66mer Holliday junction (structured_DNA)
DNA 1: ATGCCGCATACAACAAGTGGGGGGATGAATAGGATGTACTGCCTTTTTTATCGACTGTCCAATATG
DNA 2: CATATTGGACAGTCGATAAAAAAGGCAGTACATACTTGGTCCACTCTGGTACAAGATGAGGTGGAT
DNA 3: ATCCACCTCATCTTGTACCAGAGTGGACCAAGTAGTGCGCGATTGACGTTCGAGGCGGACTCTCCT
DNA 4: AGGAGAGTCCGCCTCGAACGTCAATCGCGCACTCCTATTCATCCCCCCACTTGTTGTATGCGGCAT
On to B2, for which the binding result in series [2] was “binds”.

B3: S5S8 sticky-end Holliday junction (structured_DNA)
DNA 1: ATGTTGATCGGGAGAGGTCGAACCCTCTTTGATATTTGTGACTTTCGGGGCAACTATTTCCTCGGCGACCACGTTCGGTGACGGACCT
DNA 2: AGGTCCGTCACCGAACGTGGTCGCCGAGGAAATAGTTGCCCCGACAGGAAGCTAACTAACATGAGACAAAAATGTGGCCTCGTTACGG
DNA 3: TCTCATGTTAGTTAGCTTCCTGACGCCTGGCCGTATCTTCGGCTTACTATCGCCTTCAGCATGACC
DNA 4: AGCCGAAGATACGGCCAGGCGTAAGTCACAAATATCAAAGAGGGTTCGACCTCTCCCGATCAACAT
As for B3, the binding result in series [1] (two 3' overhangs 22 nt (strands 2 and 3)) was “binds”.

B4: 44mer Holliday junction (structured_DNA)
DNA 1: CGATGCGAAATCTGTACGCGCACCACGTGAAGGTGCTAGTCCCC
DNA 2: GAATGTGTTGATGGTTAAGTTCTGCGCGTACAGATTTCGCATCG
DNA 3: GTGTCTATCATTAGCGGCTCAAGAACTTAACCATCAACACATTC
DNA 4: GGGGACTAGCACCTTCACGTGGTTGAGCCGCTAATGATAGACAC
With B4, the binding result in series [3] was “binds”.

B5: 88mer Holliday junction (structured_DNA)
DNA 1: CAGTTCCCTAAGACATCGACGTAGGACCTTGATCAACGCAGCTATGACTTCAGAGATTCTCTTATCTGGAAGCGTCCACGAACCGGCC
DNA 2: GGCCGGTTCGTGGACGCTTCCAGATAAGAGAATCTCTGAAGTCATTTGTACACTTTTCTATTCACGAGCAAAGCCTGGTATACTAGAA
DNA 3: TTCTAGTATACCAGGCTTTGCTCGTGAATAGAAAAGTGTACAAACCCACATTGCCATCGGGCGAAATGGGGTGTGCAGCGCATGCTCG
DNA 4: CGAGCATGCGCTGCACACCCCATTTCGCCCGATGGCAATGTGGGTAGCTGCGTTGATCAAGGTCCTACGTCGATGTCTTAGGGAACTG
In the case of B5, the binding result in series [4] is given as “binds”.
